According to paper PMC8863369, “Heparan sulfate-dependent RAGE oligomerization is indispensable for pathophysiological functions of RAGE” (eLife, 2022):

Assays:
[1] = molecular target: mouse RAGE VC1 domain triple mutant R216A-R217H-R218A (mouse); assay: ELISA; methods: 200 ng mRAGE-WT or mRAGE-AHA coated on the plate, 1% BSA block, biotinylated HMGB1 50-1000 ng/ml for 2 hr, streptavidin-HRP; the legend says HMGB1 was immobilised; apparent Kd
[2] = molecular target: T1, high mobility group Box 1 (HMGB1) (UniProt P63158 1-215, biotin (in the HMGB1 binding ELISA of p-0047; immobilised without a stated label in the ELISA of p-0044)); assay: as above; conditions: both partners purified
T1 construct: HMGB1; also called biotinylated HMGB1
T1 sequence (looked up): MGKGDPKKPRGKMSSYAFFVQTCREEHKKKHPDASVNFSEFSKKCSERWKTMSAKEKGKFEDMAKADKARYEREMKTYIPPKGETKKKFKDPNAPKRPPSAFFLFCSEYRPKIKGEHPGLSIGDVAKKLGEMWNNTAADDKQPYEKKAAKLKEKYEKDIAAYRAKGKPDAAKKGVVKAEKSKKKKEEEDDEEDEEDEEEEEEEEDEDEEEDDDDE

[3] = molecular target: T2, mouse RAGE VC1 domain triple mutant R216A-R217H-R218A; assay: gel filtration (Superdex 200); conditions: chain shown with the change; incubated with HS dodecasaccharide (H12); Superdex 200 (10/300 mm) gel filtration column; parent: est. 13; read off a plot
T2 chain: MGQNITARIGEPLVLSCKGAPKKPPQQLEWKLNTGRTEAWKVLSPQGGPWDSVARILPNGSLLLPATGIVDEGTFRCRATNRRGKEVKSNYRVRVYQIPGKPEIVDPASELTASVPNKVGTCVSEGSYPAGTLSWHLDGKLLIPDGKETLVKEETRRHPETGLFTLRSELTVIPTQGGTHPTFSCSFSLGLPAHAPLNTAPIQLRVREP

## high mobility group Box 1 (HMGB1) (from UniProt P63158 1-215) (ligand)
[1]
  Kd: 9.9 nM

B1: wild-type mouse RAGE VC1 domain (domain or fragment, UniProt Q62151 23-231, looked up)
chain: GQNITARIGEPLVLSCKGAPKKPPQQLEWKLNTGRTEAWKVLSPQGGPWDSVARILPNGSLLLPATGIVDEGTFRCRATNRRGKEVKSNYRVRVYQIPGKPEIVDPASELTASVPNKVGTCVSEGSYPAGTLSWHLDGKLLIPDGKETLVKEETRRHPETGLFTLRSELTVIPTQGGTHPTFSCSFSLGLPRRRPLNTAPIQLRVREPG
notes: RAGE (receptor for advanced glycation end-products, Ager), mouse, V and C1 immunoglobulin domains; also called WT-mVC1; mVC1-WT; source: E. coli, purified (HiTrap SP cation exchange, SEC on Superdex 200)
[2]
  Kd: 11.7 nM

B2: wild-type mouse RAGE VC1 domain, Q62151 R216A; R217H; R218A (protein)
chain: T2 chain
[3]
  other: gel filtration elution volume of main peak in presence of H12: 14 mL
